How the values were obtained:
Test in all cases: ITC
[1] = molecular target: WW1–WW2 tandem module of WWOX (residues 16–91) (human) (UniProt Q9NZC7)
[2] = molecular target: WW2W domain of WWOX (WW2 domain, residues 57–91, with the Y85W substitution) (human) (UniProt Q9NZC7)
[3] = molecular target: WW1 domain of WWOX (residues 16–50) (human) (UniProt Q9NZC7)
Chain of WW1 domain of WWOX (residues 16–50) (human) (Q9NZC7 16-50): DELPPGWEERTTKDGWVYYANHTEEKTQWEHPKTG

Chain of WW2W domain of WWOX (WW2 domain, residues 57–91, with the Y85W substitution) (human) (Q9NZC7 57-91 Y85W): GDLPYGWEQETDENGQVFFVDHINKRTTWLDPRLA
Chain of WW1–WW2 tandem module of WWOX (residues 16–91) (human) (Q9NZC7 16-91): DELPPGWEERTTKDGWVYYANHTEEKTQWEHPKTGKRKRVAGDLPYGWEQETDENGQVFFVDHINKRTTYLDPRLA

Substance	Kd [1] [µM]	Kd [2] [µM]	dH [2] [kcal/mol]	Kd [3] [µM]	dH [3] [kcal/mol]
PY3_A+2 (ErbB4_PY3 peptide with alanine at position +2)				287	-3.63
PY3_A+4 (ErbB4_PY3 peptide with alanine at position +4)				275	-4.02
PY3_A+5 (ErbB4_PY3 peptide with alanine at position +5)				157	-11.4
PY3_A+6 (ErbB4_PY3 peptide with alanine at position +6)				135	-4.78
PY3_A−1 (ErbB4_PY3 peptide with alanine at position −1)				161	-3.33
PY3_A−2 (ErbB4_PY3 peptide with alanine at position −2)				151	-6.19

The remaining substances from weak to strong by Kd [3], led by results:

Kd [1] [µM]	Kd [2] [µM]	dH [2] [kcal/mol]	Kd [3] [µM]	dH [3] [kcal/mol]	Substance
68	54	-4.15	144	-6.21	ErbB4_PY3 peptide (12-mer spanning the PY3 PPXY motif of the ICD of ErbB4)
			113	-3.67	PY3_A−3 (ErbB4_PY3 peptide with alanine at position −3)

Reference: paper PMC3906126
